Values joined by “and” are separate entries in the source; they are usually repeats but may differ in a detail not shown here. Identical values can stand only once. “Also recorded” adds a separate entry of the source.
What was measured:
[1] = test system: Aβ40; experiment: SMFS of Aβ40 interaction; format: binding; conditions: Aβ40 vs Aβ42, neutral pH; ref [10]
[2] = test system: Aβ40; conditions: cited from earlier work
[3] = SDS-page gel experiment, monomer state of Aβ42; format: physicochemical; conditions: diluted in different pH buffers from DMSO stock solution (Fig. S1)
[4] = target: T1, Aβ42 (Homo sapiens, UniProt P05067); experiment: Single-molecule AFM force spectroscopy; format: binding; conditions: pH 7
T1 sequence (P05067 672-713 limits assumed): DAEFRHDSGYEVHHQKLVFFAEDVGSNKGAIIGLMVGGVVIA

[5] = target: T1, Aβ42; experiment: Contour length analysis of Aβ42 dimers; format: binding; conditions: for Prevailing region of interpeptide interaction: in words
[6] = target: T1, Aβ42; experiment: Dynamic force spectroscopy; format: binding; conditions: for Lifetime of the dimer: calculated by k^−1off, SD from five independent experiments
[7] = single representative curve (Fig. 2A), WLC fit, ALR ~4,000 pN/s
[8] = pH 7, area under Gaussian curve

Substance: Aβ40: Aβ protein containing 40 residues; Aβ42 differs by two extra C terminal residues (I41 and A42)
- Dimer lifetime relative to Aβ42 [1]: four times shorter
- Dimer lifetime relative to monomer dynamics ([2]; Aβ40 dimer lifetime vs monomer dynamics, ref [10]): ~10^6 times
- Conformer population, major interactions (L0 and L1) ([2]; pH 7, N-terminal segment interactions, ref [10]): 74%
- Lifetime of misfolded Aβ40 dimers ([2]; ref [10]): 0.1 s
- Rupture forces of dimers compared to Aβ42 ([2]; result in words, reference not given, Aβ40 study is ref [10]): quite similar to those for Aβ42

Substance: Aβ42: Aβ42 terminated with cysteine at N-terminus (AnaSpec, Inc., Fremont, CA)
- Monomer state by SDS-page gel [3]: The monomer state of Aβ42 diluted in different pH buffers from the stock solution was confirmed
- Rupture force of representative curves with various contour lengths ([4]; four curves of Fig. 4A, similar ALR (~20,000 pN/s)): 150±20 pN
- Contour length, representative F-D curve [4, 7]: ~ 58 nm
- Rupture force, representative F-D curve [4, 7]: ~ 83 pN
- Prevailing region of interpeptide interaction ([5]; acidic pH (2.7)): interaction within the peptide center prevailed
- Conformer population, model L3 (C-termini), change vs pH 7 ([5]; pH 2.7 vs pH 7, result in words): three-fold drop in the interaction between the C-termini (model L3)
- Conformer population, model L0 (interactions very close to N-termini) [5, 8]: 13%
- Conformer population, model L1 (middle segments) [5, 8]: 29%
- Prevailing region of interpeptide interaction ([5]; pH 7): Interaction via C-terminal segments prevailed
- Contour length, Gaussian center L0 ([5]; pH 7 and 2.7, L0): around 35 nm
- Contour length, Gaussian center L1 ([5]; pH 7 and 2.7, L1): ~41 nm
- Contour length, Gaussian center L2 ([5]; pH 7 and 2.7, L2): ~47 nm
- Contour length, Gaussian center L3 ([5]; pH 7 and 2.7, L3): ~53 nm
- Lifetime of dimers (in words) ([6]; SMFS/DFS, pH not given): in the range of a second; also recorded: higher than that of Aβ40
- Lifetime of the dimer ([6]; pH 2.7): 2.5±0.7 s and 2.5 s and 2.5 (±0.7) s
- Increase of the dimer lifetime, pH 2.7 vs pH 7 ([6]; pH 2.7 vs pH 7): ~5 fold
- Lifetime of the dimer ([6]; pH 7): 0.46 (±0.25) s
- ΔG, barrier height for dimer dissociation ([6]; pH 7, calculated from koff): ~ 28.3 kBT

Source: publication PMC4019693 (Nanomedicine : nanotechnology, biology, and medicine, 2013)
